According to publication PMC2850201 (Archives of biochemistry and biophysics, 2008):
Entries after “also recorded” stand apart in the source; their conditions may differ. Where two headings read alike, the source gives them in different places. Peptide text beside a SMILES is read from it.

Key:
[1] = target: CheZ peptide (Escherichia coli) (UniProt P0A9H9); experiment: fluorescence; settings: cited from earlier work
[2] = target: FliM peptide (Escherichia coli) (UniProt P06974); settings: cited from earlier work
[3] = target: FliM peptide (Escherichia coli) (UniProt P06974); settings: cited from earlier work; remark: listed apart in the source
[4] = target: Phosphono-CheY (Escherichia coli, UniProt P0AE67, D57C); type: binding, E. coli; settings: phosphono-CheY versus CheY~P
[5] = target: T87I/Y106W Phosphono-CheY (Escherichia coli, UniProt P0AE67, D57C/T87I/Y106W); type: binding, E. coli; settings: ~2 μM protein, 100 mM HEPES, 10 mM MgCl2, 25 °C; no change in fluorescence intensity up to 500 μM peptide; uncertainty in intensity about 4 % due to noise
[6] = target: T87I Phosphono-CheY (Escherichia coli, UniProt P0AE67, D57C/T87I); type: binding, E. coli; settings: ~2 μM protein, 100 mM HEPES, 10 mM MgCl2, 25 °C; no change in fluorescence intensity up to 500 μM peptide; uncertainty in intensity about 4 % due to noise
[7] = target: T1, Phosphono-CheY (Escherichia coli, UniProt P0AE67 1-129, D57C, phosphonomethyl group on Cys57 (Pcy57)); experiment: other fluorescence titration
T1 sequence (looked up): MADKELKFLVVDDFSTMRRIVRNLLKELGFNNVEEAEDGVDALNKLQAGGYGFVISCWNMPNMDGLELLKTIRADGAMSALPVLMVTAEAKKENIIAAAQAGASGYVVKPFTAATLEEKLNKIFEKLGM

[8] = target: T1, Phosphono-CheY; experiment: ITC
[9] = target: T1, Phosphono-CheY; experiment: ITC; remark: listed apart in the source
[10] = system: CheZ; settings: cited from earlier work
[11] = system: CheY~P; settings: cited from earlier work
[12] = system: flagellar rotation; settings: cited from earlier work

Sequence of FliM peptide (Escherichia coli) (P06974 whole entry): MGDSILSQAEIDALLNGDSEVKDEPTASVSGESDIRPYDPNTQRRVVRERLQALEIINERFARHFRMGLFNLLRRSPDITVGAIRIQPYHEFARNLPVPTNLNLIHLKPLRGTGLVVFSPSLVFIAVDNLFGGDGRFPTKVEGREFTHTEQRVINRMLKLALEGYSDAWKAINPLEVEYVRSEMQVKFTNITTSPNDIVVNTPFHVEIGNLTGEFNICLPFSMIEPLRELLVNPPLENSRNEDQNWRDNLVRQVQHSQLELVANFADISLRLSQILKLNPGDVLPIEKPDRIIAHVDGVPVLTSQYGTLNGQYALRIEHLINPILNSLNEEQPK
Sequence of CheZ peptide (Escherichia coli) (P0A9H9 whole entry): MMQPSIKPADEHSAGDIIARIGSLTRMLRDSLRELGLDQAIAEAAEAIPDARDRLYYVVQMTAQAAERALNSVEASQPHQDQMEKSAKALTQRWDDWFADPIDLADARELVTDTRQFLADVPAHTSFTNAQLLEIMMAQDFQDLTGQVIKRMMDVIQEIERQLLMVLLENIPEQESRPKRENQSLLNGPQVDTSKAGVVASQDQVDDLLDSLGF
Sequence of T87I Phosphono-CheY (P0AE67 2-129 D57C/T87I limits assumed): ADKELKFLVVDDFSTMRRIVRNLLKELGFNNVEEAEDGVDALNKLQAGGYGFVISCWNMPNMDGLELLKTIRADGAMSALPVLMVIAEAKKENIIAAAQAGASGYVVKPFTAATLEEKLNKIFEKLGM
Sequence of T87I/Y106W Phosphono-CheY (P0AE67 2-129 D57C/T87I/Y106W limits assumed): as the sequence (P0AE67 2-129 D57C/T87I limits assumed) above, with Y105W counted along it

## CheY~P (from UniProt P0AE67)
[1]
  Kd: 26 µM
[2]
  Kd: 27 µM

## CheY (from UniProt P0AE67)
[1]
  Kd: 440 µM
[3]
  Kd: 680 µM

## CC[C@H](C)[C@H](NC(=O)[C@H](CCC(=O)O)NC(=O)[C@H](C)NC(=O)[C@H](CCC(N)=O)NC(=O)[C@H](CO)NC(=O)[C@H](CC(C)C)NC(=O)[C@@H](NC(=O)[C@H](CO)NC(=O)[C@H](CC(=O)O)NC(=O)CNC(=O)[C@@H](N)CCSC)[C@@H](C)CC)C(=O)N[C@@H](CC(=O)O)C(=O)N[C@@H](C)C(=O)N[C@@H](CC(C)C)C(=O)N[C@@H](CC(C)C)C(=O)N[C@@H](CC(N)=O)C(=O)O [FliM peptide] (H-MGDSILSQAEIDALLN-OH)
[4]
  affinity / Kd for phosphono-CheY compared with CheY~P: CheY~P binds the same FliM peptide with slightly higher affinity; also recorded: almost identical
[5]
  Kd (fluorescence): Not detectable ^b
[6]
  Kd (fluorescence): Not detectable ^b

## MGDSILSQAEIDALLN [FliM peptide]
[7]
  Kd: 38 ± 1 µM
[8]
  dH: -2.4 kcal/mol
[9]
  Kd: 21 µM

## AGVVASQDQVDDLLDSLGF [CheZ peptide]
[8]
  dH: -4.8 kcal/mol

B1: CheY~P: phosphorylated form of CheY (protein, UniProt P0AE67 2-129, looked up)
Chemotaxis protein CheY: ADKELKFLVVDDFSTMRRIVRNLLKELGFNNVEEAEDGVDALNKLQAGGYGFVISDWNMPNMDGLELLKTIRADGAMSALPVLMVTAEAKKENIIAAAQAGASGYVVKPFTAATLEEKLNKIFEKLGM
modifications: phosphorylated
[10]; in vivo, autophosphatase plus CheZ
  in vivo half-life of CheY~P: less than a second
[11]; in the absence of CheZ
  half-life of CheY~P: 15 to 20 s

B2: T87C CheY~P: phosphorylated T87C CheY (protein, UniProt P0AE67 2-129, looked up, variant T87C)
Chemotaxis protein CheY: ADKELKFLVVDDFSTMRRIVRNLLKELGFNNVEEAEDGVDALNKLQAGGYGFVISDWNMPNMDGLELLKTIRADGAMSALPVLMVCAEAKKENIIAAAQAGASGYVVKPFTAATLEEKLNKIFEKLGM
modifications: phosphorylated
[10]
  sensitivity to CheZ-promoted phosphatase activity: the same is true of T87C CheY~P

B3: T87I/Y106W CheY: E. coli CheY double mutant T87I/Y106W (protein, UniProt P0AE67 2-129, looked up, variant T87I Y106W)
Chemotaxis protein CheY: ADKELKFLVVDDFSTMRRIVRNLLKELGFNNVEEAEDGVDALNKLQAGGYGFVISDWNMPNMDGLELLKTIRADGAMSALPVLMVIAEAKKENIIAAAQAGASGWVVKPFTAATLEEKLNKIFEKLGM
[10]
  sensitivity to CheZ: completely resistant to CheZ activity
[12]
  generation of clockwise rotation of the flagella: cannot generate clockwise rotation of the flagella
[11]
  autodephosphorylation rate: ~ 5 fold lower

B4: T87I/Y106W CheY~P: phosphorylated T87I/Y106W CheY (protein, UniProt P0AE67 2-129, looked up, variant T87I Y106W)
Chemotaxis protein CheY: ADKELKFLVVDDFSTMRRIVRNLLKELGFNNVEEAEDGVDALNKLQAGGYGFVISDWNMPNMDGLELLKTIRADGAMSALPVLMVIAEAKKENIIAAAQAGASGWVVKPFTAATLEEKLNKIFEKLGM
modifications: phosphorylated
[10]
  sensitivity to CheZ: resistant to CheZ-promoted phosphatase activity

B5: T87I CheY~P: phosphorylated T87I CheY (protein, UniProt P0AE67 2-129, looked up, variant T87I)
Chemotaxis protein CheY: ADKELKFLVVDDFSTMRRIVRNLLKELGFNNVEEAEDGVDALNKLQAGGYGFVISDWNMPNMDGLELLKTIRADGAMSALPVLMVIAEAKKENIIAAAQAGASGYVVKPFTAATLEEKLNKIFEKLGM
modifications: phosphorylated
[10]
  sensitivity to CheZ: resistant to CheZ-promoted phosphatase activity

B6: Y106W CheY: Substitution of Tyr106 in E. coli CheY with tryptophan (protein, UniProt P0AE67 2-129, looked up, variant Y106W)
Chemotaxis protein CheY: ADKELKFLVVDDFSTMRRIVRNLLKELGFNNVEEAEDGVDALNKLQAGGYGFVISDWNMPNMDGLELLKTIRADGAMSALPVLMVTAEAKKENIIAAAQAGASGWVVKPFTAATLEEKLNKIFEKLGM
[12]
  flagellar rotation / swimming phenotype: hyperactive mutant that generates mainly clockwise rotational bias

B7: T87I CheY: E. coli CheY mutant T87I (protein, UniProt P0AE67 2-129, looked up, variant T87I)
Chemotaxis protein CheY: ADKELKFLVVDDFSTMRRIVRNLLKELGFNNVEEAEDGVDALNKLQAGGYGFVISDWNMPNMDGLELLKTIRADGAMSALPVLMVIAEAKKENIIAAAQAGASGYVVKPFTAATLEEKLNKIFEKLGM
[10]
  sensitivity to CheZ: completely resistant to CheZ activity
[12]
  generation of clockwise rotation of the flagella: cannot generate clockwise rotation of the flagella
[11]
  autodephosphorylation rate: ~ 5 fold lower
